Test results from patent publication US20240091361A1, “T CELL RECEPTORS TARGETING RAS MUTATIONS AND USES THEREOF” (MEMORIAL SLOAN-KETTERING CANCER CENTER, priority 2021, published 2024).
Values belong to the binder of their own block, whether it stands above or below them.

Tests used:
[1] = biological target: T1, EFGM peptide on HLA-A*11:01 (human); assay: cytokine release
T1 peptide: EVKGKDGVGA

[2] = biological target: T2, COIA1 peptide on HLA-A*11:01 (human); assay: cytokine release
T2 peptide: GDPGKDGVGQ

[3] = biological target: T3, NLRP9 peptide on HLA-A*11:01 (human); assay: cytokine release
T3 peptide: VLEGPDGIGK

[4] = biological target: T4, ABCF1 peptide on HLA-A*11:01 (human); assay: cytokine release
T4 peptide: CIVGPNGVGK

[5] = biological target: T5, CO6A3 peptide on HLA-A*11:01 (human); assay: cytokine release
T5 peptide: GDDGRDGVGS

[6] = biological target: T6, AGRIN peptide on HLA-A*11:01 (human); assay: cytokine release
T6 peptide: PVCGSDGVTY

[7] = biological target: T7, SOCS7 peptide on HLA-A*11:01 (human); assay: cytokine release
T7 peptide: GSGGGDGTGK

[8] = biological target: T8, PRA19 peptide on HLA-A*11:01 (human); assay: cytokine release
T8 peptide: KLFISDGCGY

[9] = biological target: T9, BY55 peptide on HLA-A*11:01 (human); assay: cytokine release
T9 peptide: RDPGIDGVGE

[10] = biological target: T10, GEM (also listed as SEQ ID NOs 82, 106, 130, 141) peptide on HLA-A*11:01 (human); assay: cytokine release
T10 peptide: AVFGAGGVGK

[11] = biological target: T11, COBA1 peptide on HLA-A*11:01 (human); assay: cytokine release
T11 peptide: GPAGQDGVGG

[12] = biological target: T12, MEIS2 peptide on HLA-A*11:01 (human); assay: cytokine release
T12 peptide: HYGGMDGVGV

[13] = biological target: T13, SMC5 peptide on HLA-A*11:01 (human); assay: cytokine release
T13 peptide: MIVGANGTGK

[14] = biological target: T14, IBP7 peptide on HLA-A*11:01 (human); assay: cytokine release
T14 peptide: PVCGSDGTTY

[15] = biological target: T15, SUCB2 peptide on HLA-A*11:01 (human); assay: cytokine release
T15 peptide: CAIIANGITK

[16] = biological target: T16, SO3A1 peptide on HLA-A*11:01 (human); assay: cytokine release
T16 peptide: PVCGADGITY

[17] = biological target: T17, CO8A2 peptide on HLA-A*11:01 (human); assay: cytokine release
T17 peptide: GPPGVDGVGV

[18] = biological target: T18, USH1G peptide on HLA-A*11:01 (human); assay: cytokine release
T18 peptide: EDGGLDGVGA

[19] = biological target: T19, CGAT2 peptide on HLA-A*11:01 (human); assay: cytokine release
T19 peptide: RNVGANGIGY

[20] = biological target: T20, DNHD1 peptide on HLA-A*11:01 (human); assay: cytokine release
T20 peptide: TVLGPNGVGK

[21] = biological target: T21, MEIS1 peptide on HLA-A*11:01 (human); assay: cytokine release
T21 peptide: HYGGMDGVGI

[22] = biological target: T22, PUR2 peptide on HLA-A*11:01 (human); assay: cytokine release
T22 peptide: LASGTDGVGT

[23] = biological target: T23, KRAS wild type (10-mer) peptide on HLA-A*11:01 (human); assay: cytokine release
T23 peptide: VVVGAGGVGK

[24] = biological target: T24, SO5A1 peptide on HLA-A*11:01 (human); assay: cytokine release
T24 peptide: PVCGSDGITY

[25] = biological target: T25, KRAS G12D (10-mer; the same sequence in NRAS G12D and HRAS G12D) peptide on HLA-A*11:01 (human); assay: multimer staining
T25 peptide: VVVGADGVGK

[26] = biological target: T26, PBX3 peptide on HLA-A*11:01 (human); assay: cytokine release
T26 peptide: GHEGADGDGR

[27] = biological target: T27, CHADL peptide on HLA-A*11:01 (human); assay: cytokine release
T27 peptide: RQCGADKVGK

[28] = biological target: T28, FMNL1 peptide on HLA-A*11:01 (human); assay: cytokine release
T28 peptide: QEAGADTPGK

[29] = biological target: T29, HMCN2 peptide on HLA-A*11:01 (human); assay: cytokine release
T29 peptide: IKQGADGSGT

[30] = biological target: T30, MED13 peptide on HLA-A*11:01 (human); assay: cytokine release
T30 peptide: NNDGADGMGI

[31] = biological target: T31, NDF2 peptide on HLA-A*11:01 (human); assay: cytokine release
T31 peptide: TEQGADGAGR

[32] = biological target: T32, HIC1 peptide on HLA-A*11:01 (human); assay: cytokine release
T32 peptide: GVPGPDGKGK

[33] = biological target: T33, DAZP1 peptide on HLA-A*11:01 (human); assay: cytokine release
T33 peptide: NNSGADEIGK

[34] = biological target: T34, KRAS G12D (9-mer; the same sequence in NRAS G12D and HRAS G12D) peptide on HLA-A*11:01 (human); assay: cytokine release
T34 peptide: VVGADGVGK

[35] = biological target: T35, PER1 peptide on HLA-A*11:01 (human); assay: cytokine release
T35 peptide: PLEGADGGGD

[36] = biological target: T36, EFMT2 peptide on HLA-A*11:01 (human); assay: cytokine release
T36 peptide: MSSGADGGGG

[37] = biological target: T37, FOXL2 peptide on HLA-A*11:01 (human); assay: cytokine release
T37 peptide: AGAGADGYGY

[38] = biological target: T38, MYLK peptide on HLA-A*11:01 (human); assay: cytokine release
T38 peptide: GGVGADGGGS

[39] = biological target: T39, GTR14; GTR3 (the same peptide, also listed as SEQ ID NO 88) peptide on HLA-A*11:01 (human); assay: cytokine release
T39 peptide: QAHGADRSGK

[40] = biological target: T40, TBL3 peptide on HLA-A*11:01 (human); assay: cytokine release
T40 peptide: LSSGSDGLVK

[41] = biological target: T41, MICU1 peptide on HLA-A*11:01 (human); assay: cytokine release
T41 peptide: YFFGADLKGK

[42] = biological target: T42, MARF1 peptide on HLA-A*11:01 (human); assay: cytokine release
T42 peptide: LKLGADGSGP

[43] = biological target: T43, DYH8 peptide on HLA-A*11:01 (human); assay: cytokine release
T43 peptide: KVAGADGKGI

[44] = biological target: T44, CC88B peptide on HLA-A*11:01 (human); assay: cytokine release
T44 peptide: LRLGADGAGS

[45] = biological target: T45, ZN646 peptide on HLA-A*11:01 (human); assay: cytokine release
T45 peptide: PEDGADGWGP

[46] = biological target: T46, ADA2C peptide on HLA-A*11:01 (human); assay: cytokine release
T46 peptide: GAGGADGQGA

[47] = biological target: T47, CL056 peptide on HLA-A*11:01 (human); assay: cytokine release
T47 peptide: SSQSAPTTGK

[48] = biological target: T48, RSLAA peptide on HLA-A*11:01 (human); assay: cytokine release
T48 peptide: AVLGAPGVGK

[49] = biological target: T49, IL17F peptide on HLA-A*11:01 (human); assay: cytokine release
T49 peptide: KTLHGPAMVK

[50] = biological target: T50, SHAN3 peptide on HLA-A*11:01 (human); assay: cytokine release
T50 peptide: TTVPSPASGK

[51] = biological target: T51, LEGL peptide on HLA-A*11:01 (human); assay: cytokine release
T51 peptide: SVADSDAVVK

[52] = biological target: T52, CPNS1 peptide on HLA-A*11:01 (human); assay: cytokine release
T52 peptide: AVMDSDTTGK

[53] = biological target: T53, BMS1 peptide on HLA-A*11:01 (human); assay: cytokine release
T53 peptide: VVMGPPKVGK

[54] = biological target: T54, CD166 peptide on HLA-A*11:01 (human); assay: cytokine release
T54 peptide: NVFEAPTIVK

[55] = biological target: T55, KZF4 peptide on HLA-A*11:01 (human); assay: cytokine release
T55 peptide: HSVSSPTVGK

[56] = biological target: T56, CK049 peptide on HLA-A*11:01 (human); assay: cytokine release
T56 peptide: YSCPPPALVK

[57] = biological target: T57, RL7A peptide on HLA-A*11:01 (human); assay: cytokine release
T57 peptide: KVAPAPAVVK

[58] = biological target: T58, FLNA peptide on HLA-A*11:01 (human); assay: cytokine release
T58 peptide: VTIDGPSKVK

[59] = biological target: T59, KAD3 peptide on HLA-A*11:01 (human); assay: cytokine release
T59 peptide: VIMGAPGSGK

[60] = biological target: T60, GRIN1 peptide on HLA-A*11:01 (human); assay: cytokine release
T60 peptide: GTAGPPSAVK

[61] = biological target: T61, CFA47 peptide on HLA-A*11:01 (human); assay: cytokine release
T61 peptide: MVFDSPTIGK

[62] = biological target: T62, ABCF1 peptide on HLA-A*11:01 (human); assay: cytokine release
T62 peptide: STSPSDKVVK

[63] = biological target: T63, CPNS2 peptide on HLA-A*11:01 (human); assay: cytokine release
T63 peptide: SVMDSDTTGK

[64] = biological target: T64, SALL1 peptide on HLA-A*11:01 (human); assay: cytokine release
T64 peptide: SATSPPGSVK

[65] = biological target: T65, SEZ6 peptide on HLA-A*11:01 (human); assay: cytokine release
T65 peptide: LSLEAPTVGK

[66] = biological target: T66, IGM peptide on HLA-A*11:01 (human); assay: cytokine release
T66 peptide: LTESGPALVK

[67] = biological target: T67, K1671 peptide on HLA-A*11:01 (human); assay: cytokine release
T67 peptide: TTKSGPALGK

binding result [1]: no recognition
binding result [2]: no recognition
binding result [3]: no recognition
binding result [4]: no recognition
binding result [5]: no recognition
binding result [6]: no recognition
binding result [7]: no recognition
binding result [8]: no recognition
binding result [9]: no recognition
binding result [10]: no recognition
binding result [11]: no recognition
binding result [12]: no recognition
binding result [13]: no recognition
binding result [14]: no recognition
binding result [15]: no recognition
binding result [16]: no recognition
binding result [17]: no recognition
binding result [18]: no recognition
binding result [19]: no recognition
binding result [20]: no recognition
binding result [21]: no recognition
binding result [22]: no recognition
binding result [23]: no recognition
binding result [24]: no recognition
binding result [25]: recognises
B1: TCR 4 (TCR, V domains shown)
Valpha: QKEVEQDPGPLSVPEGAIVSLNCTYSNSAFQYFMWYRQYSRKGPELLMYTYSSGNKEDGRFTAQVDKSSKYISLFIRDSQPSDSATYLCAMGALNSGAGSYQLTFGKGTKLSVIP
Vbeta: KAGVTQTPRYLIKTRGQQVTLSCSPISGHRSVSWYQQTPGQGLQFLFEYFSETQRNKGNFPGRFSGRQFSNSRSEMNVSTLELGDSALYLCASSLSSGTGTEAFFGQGTRLTVV

binding result [26]: no recognition
binding result [27]: no recognition
binding result [28]: no recognition
binding result [29]: no recognition
binding result [30]: no recognition
binding result [31]: no recognition
binding result [32]: no recognition
binding result [33]: no recognition
binding result [34]: recognises
binding result [10]: no recognition
binding result [35]: no recognition
binding result [36]: no recognition
binding result [37]: no recognition
binding result [38]: no recognition
binding result [39]: no recognition
binding result [40]: no recognition
binding result [41]: no recognition
binding result [42]: no recognition
binding result [43]: no recognition
binding result [44]: no recognition
binding result [45]: no recognition
binding result [23]: no recognition
binding result [46]: no recognition
binding result [25]: recognises
B2: TCR 3 (TCR, V domains shown)
Valpha: AQTVTQSQPEMSVQEAETVTLSCTYDTSESDYYLFWYKQPPSRQMILVIRQEAYKQQNATENRFSVNFQKAAKSFSLKISDSQLGDAAMYFCAYRSDGGATNKLIFGTGTLLAVQP
Vbeta: EAQVTQNPRYLITVTGKKLTVTCSQNMNHEYMSWYRQDPGLGLRQIYYSMNVEVTDKGDVPEGYKVSRKEKRNFPLILESPSPNQTSLYFCASSLGAGGYNSPLHFGNGTRLTVT

binding result [47]: no recognition
binding result [48]: no recognition
binding result [49]: no recognition
binding result [50]: no recognition
binding result [51]: no recognition
binding result [52]: no recognition
binding result [53]: no recognition
binding result [54]: no recognition
binding result [55]: no recognition
binding result [34]: recognises
binding result [56]: no recognition
binding result [10]: no recognition
binding result [57]: no recognition
binding result [58]: no recognition
binding result [59]: no recognition
binding result [60]: no recognition
binding result [61]: no recognition
binding result [62]: no recognition
binding result [63]: no recognition
binding result [64]: no recognition
binding result [65]: no recognition
binding result [23]: no recognition
binding result [66]: no recognition
binding result [67]: no recognition
binding result [25]: recognises
B3: TCR 2 (TCR, V domains shown)
Valpha: AQTVTQSQPEMSVQEAETVTLSCTYDTSENNYYLFWYKQPPSRQMILVIRQEAYKQQNATENRFSVNFQKAAKSFSLKISDSQLGDTAMYFCAFMYPSQGGSEKLVFGKGMKLTVNP
Vbeta: ETGVTQSPTHLIKTRGQQVTLRCSSQSGHNTVSWYQQALGQGPQFIFQYYREEENGRGNFPPRFSGLQFPNYSSELNVNALELDDSALYLCASSSPGFRSYGYTFGSGTRLTVV
